The values below come from article PMC11863771 (Cell Communication and Signaling : CCS, 2025).

The target in one assay is T1, CXCR4-Rluc8 (human, UniProt P61073 1-352).
T1 construct: C-X-C chemokine receptor type 4 (CXCR4), human cDNA from the Missouri S&T cDNA Resource Center; source: HEK293A, transiently transfected, in cells; not shown: Rluc8, C-terminal, kept
Description: FRET or BRET; quantitative BRET saturation in HEK293A cells: fixed amount of Rluc8-tagged donor, increasing amounts of mCit-tagged acceptor, coelenterazine h 5 µM; no ligand, no further receptor coexpressed. The conditions noted are these: partners not purified. On the technique in general: Bioluminescence resonance energy transfer reports proximity on the nanometre scale.

Assay [1] has as its target T2, CXCR4-Rluc8 (human), P61073.
T2 chain: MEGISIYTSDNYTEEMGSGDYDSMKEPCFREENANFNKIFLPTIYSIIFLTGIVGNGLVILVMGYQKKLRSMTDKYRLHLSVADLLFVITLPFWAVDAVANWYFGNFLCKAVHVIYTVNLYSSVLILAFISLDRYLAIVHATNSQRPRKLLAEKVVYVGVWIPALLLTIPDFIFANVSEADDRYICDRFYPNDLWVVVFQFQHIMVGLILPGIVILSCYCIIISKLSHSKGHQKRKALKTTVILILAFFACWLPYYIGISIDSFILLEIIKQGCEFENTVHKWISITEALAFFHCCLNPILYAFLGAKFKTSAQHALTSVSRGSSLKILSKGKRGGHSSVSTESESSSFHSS
Kind of assay: FRET or BRET; quantitative BRET saturation in HEK293A cells, CXCR4-Rluc8 and CXCR4-mCit, without S1P1, with CXCL12 (10 nM). The conditions noted are these: remark: other sources report otherwise.

Assay [2] has the same target. Kind of assay: FRET or BRET; quantitative BRET saturation in HEK293A cells, CXCR4-Rluc8 and CXCR4-mCit, with S1P1 coexpressed, vehicle. The conditions noted are these: remark: other sources report otherwise.
Assay [3] shares this target. Description: FRET or BRET; quantitative BRET saturation in HEK293A cells: fixed amount of Rluc8-tagged donor, increasing amounts of mCit-tagged acceptor, coelenterazine h 5 µM; no ligand, no further receptor coexpressed. The conditions noted are these: remark: other sources report otherwise.
For assay [4] the target is unchanged. Description: FRET or BRET; quantitative BRET saturation in HEK293A cells, CXCR4-Rluc8 and CXCR4-mCit, with S1P1 coexpressed, with CXCL12 (10 nM). The conditions noted are these: remark: other sources report otherwise.
For assay [5] the target is unchanged. Description: FRET or BRET; quantitative BRET saturation in HEK293A cells: fixed amount of Rluc8-tagged donor, increasing amounts of mCit-tagged acceptor, coelenterazine h 5 µM; no ligand, no further receptor coexpressed. To be noted: remark: other sources report otherwise.

B1: mCit-tagged S1P3(TM4) (receptor, human)
chain: MATALPPRLQPVRGNETLREHYQYVGKLAGRLKEASEGSTLTTVLFLVICSFIVLENLMVLIAIWKNNKFHNRMYFFIGNLALCDLLAGIAYKVNILMSGKKTFSLSPTVWFLREGSMFVALGASTCSLLAIAIERHLTMIKMRPYDASNNFRLFLLISACWVISLILGGLPIMGWNCISALSSCSTILPLYSKKYIAFCISIFTAILVTIVILYARIYFLVKSSSRKVANHNNSERSMALLRTVVIVVSVFIACWSPLFILFLIDVACRVQACPILFKAQWFIVLAVLNSAMNPVIYTLASKEMRRAFFRLVCNCLVRGRGARASPIQPALDPSRSKSSSSNNSSHSPKVKEDLPHTAPSSCIMDKNAALQNGIFCN
notes: S1P3, human, the part before the printed TM4 stretch (NKRHRV...); TM4 of S1P1, human, put in place of TM4 of S1P3; S1P3, human, the part after the printed TM4 stretch (...NLPDCS); TM4 of S1P3 ([residues removed]) replaced with TM4 of S1P1; source: HEK293A, transiently transfected, in cells; not shown: mCitrine (mCit), C-terminal, kept
With B1, the BRET50 with CXCR4-Rluc8 was determined as 12.7 ± 0.687.

B2: mCit-tagged S1P1(TM3) (receptor, human)
chain: MGPTSVPLVKAHRSSVSDYVNYDIIVRHYNYTGKLNISADKENSIKLTSVVFILICCFIILENIFVLLTIWKTKKFHRPMYYFIGNLALSDLLAGVAYTANLLLSGATTYSLSPTVWFLREGSMFVALGASTCSLLAIAIERHLTMIKMRPYDASNNFRLFLLISACWVISLILGGLPIMGWNCISALSSCSTVLPLYHKHYILFCTTVFTLLLLSIVILYCRIYSLVRTRSRRLTFRKNISKASRSSEKSLALLKTVIIVLSVFIACWAPLFILLLLDVGCKVKTCDILFRAEYFLVLAVLNSGTNPIIYTLTNKEMRRAFIRIMSCCKCPSGDSAGKFKRPIIAGMEFSRSKSDNSSHPQKDEGDNPETIMSSGNVNSSS
notes: S1P1, human, the part before the printed TM3 stretch (KLTPAQ...); TM3 of S1P3, human, put in place of TM3 of S1P1; S1P1, human, the part after the printed TM3 stretch (...KLHNG); TM3 of S1P1 ([residues removed]) replaced with TM3 of S1P3; source: HEK293A, transiently transfected, in cells; not shown: mCitrine (mCit), C-terminal, kept
The molecule B2 yielded a BRET50 in the assay with CXCR4-Rluc8 of 7.24 ± 0.501.

B3: mCit-tagged S1P1(TM4) (receptor, human)
chain: MGPTSVPLVKAHRSSVSDYVNYDIIVRHYNYTGKLNISADKENSIKLTSVVFILICCFIILENIFVLLTIWKTKKFHRPMYYFIGNLALSDLLAGVAYTANLLLSGATTYKLTPAQWFLREGSMFVALSASVFSLLAIAIERYITMLKMKLHNGNKRHRVFLLIGMCWLIAFTLGALPILGWNCLHNLPDCSTVLPLYHKHYILFCTTVFTLLLLSIVILYCRIYSLVRTRSRRLTFRKNISKASRSSEKSLALLKTVIIVLSVFIACWAPLFILLLLDVGCKVKTCDILFRAEYFLVLAVLNSGTNPIIYTLTNKEMRRAFIRIMSCCKCPSGDSAGKFKRPIIAGMEFSRSKSDNSSHPQKDEGDNPETIMSSGNVNSSS
notes: S1P1, human, the part before the printed TM4 stretch (SNNFRL...); TM4 of S1P3, human, put in place of TM4 of S1P1; S1P1, human, the part after the printed TM4 stretch (...ALSSCS); TM4 of S1P1 ([residues removed]) replaced with TM4 of S1P3; source: HEK293A, transiently transfected, in cells; not shown: mCitrine (mCit), C-terminal, kept
In the case of B3, the BRET50 with CXCR4-Rluc8 is 7.19 ± 0.559.

B4: mCit-tagged S1P3(TM3) (receptor, human)
chain: MATALPPRLQPVRGNETLREHYQYVGKLAGRLKEASEGSTLTTVLFLVICSFIVLENLMVLIAIWKNNKFHNRMYFFIGNLALCDLLAGIAYKVNILMSGKKTFKLTPAQWFLREGSMFVALSASVFSLLAIAIERYITMLKMKLHNGNKRHRVFLLIGMCWLIAFTLGALPILGWNCLHNLPDCSTILPLYSKKYIAFCISIFTAILVTIVILYARIYFLVKSSSRKVANHNNSERSMALLRTVVIVVSVFIACWSPLFILFLIDVACRVQACPILFKAQWFIVLAVLNSAMNPVIYTLASKEMRRAFFRLVCNCLVRGRGARASPIQPALDPSRSKSSSSNNSSHSPKVKEDLPHTAPSSCIMDKNAALQNGIFCN
notes: S1P3, human, the part before the printed TM3 stretch (SLSPTV...); TM3 of S1P1, human, put in place of TM3 of S1P3; S1P3, human, the part after the printed TM3 stretch (...RPYDA); TM3 of S1P3 ([residues removed]) replaced with TM3 of S1P1; source: HEK293A, transiently transfected, in cells; not shown: mCitrine (mCit), C-terminal, kept
B4: the BRET50 with CXCR4-Rluc8 worked out at 6.97 ± 0.473.

B5: CXCR4-mCit, P61073 1-352 (receptor)
chain: MEGISIYTSDNYTEEMGSGDYDSMKEPCFREENANFNKIFLPTIYSIIFLTGIVGNGLVILVMGYQKKLRSMTDKYRLHLSVADLLFVITLPFWAVDAVANWYFGNFLCKAVHVIYTVNLYSSVLILAFISLDRYLAIVHATNSQRPRKLLAEKVVYVGVWIPALLLTIPDFIFANVSEADDRYICDRFYPNDLWVVVFQFQHIMVGLILPGIVILSCYCIIISKLSHSKGHQKRKALKTTVILILAFFACWLPYYIGISIDSFILLEIIKQGCEFENTVHKWISITEALAFFHCCLNPILYAFLGAKFKTSAQHALTSVSRGSSLKILSKGKRGGHSSVSTESESSSFHSS
Consider B5, for which the BRET50 turned out to be 9.53 in assay [1]; 22.8 in assay [2]; 2.74 in assay [3]; 20.1 in assay [4]; 15.6 in assay [5].
